According to patent publication US5882887:

How the values were obtained:
collagen (type III) [1] = target: collagen (type III)
collagen (type III) [2] = target: collagen (type III); remark: listed apart in the source

B1: recombinant Asp-Pallidipin (protein of SEQ ID NO:1) (protein)
chain: DEECELMPPGDNFDLEKYFSIPHVYVTHSRNGPKEQVCREYKTTKNSDGTTTTTLVTSDYKTGGKPYHSELKCTNTPKSGGKGQFSVECEVPNGNGGKKKIHVETSVIATDYKNYALLQSCTKTESGIADDVLLLQTKKEGVDPGVTSVLKSVNWSLDDWFSRSKVNCDNMK
collagen
  collagen-induced aggregation of human platelets in platelet-rich plasma (aggregometer, maximum value): 50 nM
Collagen (type III) [1]
  adhesion of metastatic tumor cells to collagen: 100 nmol/L
Collagen (type III) [2]
  attachment of 51Cr-labelled MTLn3 rat mammary tumor cells to collagen-coated wells (cpm): 1080 cpm
